Measured values from PMC11213201 (2024).

B1: ZFYVE21-FLAG [not stated] / LC3B [human (endogenous in HUVEC)] (parent complex)
chain 1: MSSEVSARRDAKKLVRSPSGLRMVPEHRAFGSPFGLEEPQWVPDKECRRCMQCDAKFDFLTRKHHCRRCGKCFCDRCCSQKVPLRRMCFVDPVRQCAECALVSLKEAEFYDKQLKVLLSGATFLVTFGNSEKPETMTCRLSNNQRYLFLDGDSHYEIEIVHISTVQILTEGFPPGGGNARATGMFLQYTVPGTEGVTQLKLTVVEDVTVGRRQAVAWLVAMHKAAKLLYESRDQ
chain 2: not shown

Variants of: B1
Test: FLAG co-IP and Western blot (densitometry); transduced HUVECs; read off a plot

| Variant | response |
| --- | --- |
| chain 1 L60A | ~0.078 Fold Change LC3-II |
| chain 1 F57A | ~0.17 Fold Change LC3-II |

The remaining lines, values ahead:

| response | Variant |
| --- | --- |
| ~0.036 Fold Change LC3-II | chain 1 Y146A |
| ~0.092 Fold Change LC3-II | chain 1 L149A |
